Source: paper PMC4670825

Legend:
NF-κB RelA (p65) = NF-κB RelA (p65) (UniProt Q04206 1-551); assay: fluorescence anisotropy
FOXO3 = FOXO3 (UniProt O43524 1-673); assay: fluorescence anisotropy
Chain of FOXO3 (O43524 whole entry): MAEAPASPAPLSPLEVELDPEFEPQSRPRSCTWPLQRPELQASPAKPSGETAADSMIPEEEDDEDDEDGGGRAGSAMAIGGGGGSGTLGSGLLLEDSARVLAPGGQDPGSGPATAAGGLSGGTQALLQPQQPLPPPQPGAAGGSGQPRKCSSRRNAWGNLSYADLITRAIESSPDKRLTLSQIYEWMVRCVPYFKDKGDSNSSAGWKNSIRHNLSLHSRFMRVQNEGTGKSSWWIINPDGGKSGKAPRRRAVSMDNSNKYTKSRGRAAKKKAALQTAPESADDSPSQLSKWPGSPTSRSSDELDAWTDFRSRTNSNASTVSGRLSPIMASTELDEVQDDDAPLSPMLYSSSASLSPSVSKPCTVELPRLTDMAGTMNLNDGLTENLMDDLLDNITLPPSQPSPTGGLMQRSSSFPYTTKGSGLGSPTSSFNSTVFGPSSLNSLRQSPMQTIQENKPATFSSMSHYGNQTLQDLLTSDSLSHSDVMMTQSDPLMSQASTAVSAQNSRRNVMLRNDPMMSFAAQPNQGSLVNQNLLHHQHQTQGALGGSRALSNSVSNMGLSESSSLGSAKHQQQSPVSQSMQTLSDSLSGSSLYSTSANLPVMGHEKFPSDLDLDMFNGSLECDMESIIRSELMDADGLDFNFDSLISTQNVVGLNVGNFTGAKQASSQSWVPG

Chain of NF-κB RelA (p65) (Q04206 whole entry): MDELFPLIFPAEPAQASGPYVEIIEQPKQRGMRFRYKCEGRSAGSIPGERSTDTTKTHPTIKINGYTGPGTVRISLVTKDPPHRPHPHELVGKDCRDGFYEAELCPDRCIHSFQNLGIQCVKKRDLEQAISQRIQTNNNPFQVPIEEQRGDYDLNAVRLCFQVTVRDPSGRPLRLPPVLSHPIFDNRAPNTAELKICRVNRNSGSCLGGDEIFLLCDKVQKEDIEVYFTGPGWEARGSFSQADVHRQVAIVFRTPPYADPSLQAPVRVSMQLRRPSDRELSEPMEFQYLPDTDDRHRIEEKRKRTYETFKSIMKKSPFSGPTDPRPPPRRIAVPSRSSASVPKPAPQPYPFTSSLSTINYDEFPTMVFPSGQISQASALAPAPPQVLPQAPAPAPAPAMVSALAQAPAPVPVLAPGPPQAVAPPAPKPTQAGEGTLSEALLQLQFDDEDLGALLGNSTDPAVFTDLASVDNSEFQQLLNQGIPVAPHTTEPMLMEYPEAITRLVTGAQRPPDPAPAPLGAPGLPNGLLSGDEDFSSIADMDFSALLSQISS

B1: FOXO3 consensus duplex (dsDNA)
DNA 1: CGCATCCTATGTAAACAACTCGAGTC
DNA 2: GACTCGAGTTGTTTACATAGGATGCG
binding result (NF-κB RelA (p65)): no binding | binding result (FOXO3): binds
